Assay results as given in US20230374157A1 (SYSTIMMUNE, published 2023).

What was measured:
[1] = biological target: T1, His-tagged human EGFR extracellular domain (expressed and purified in-house) (human, UniProt P00533 25-645); assay: BLI, antibody on AHC tips, monomeric EGFR ECD in solution, 1:1 fit
T1 construct: extracellular domain; Monomeric, in solution; also called EGFR (purified in-house); not shown: His tag

[2] = biological target: T2, His-tagged human HER3 extracellular domain (Acro ER3-H5223) (human, UniProt P21860 20-643); assay: BLI, antibody on AHC tips, monomeric HER3 ECD in solution, 1:1 fit
T2 construct: extracellular domain; Monomeric, in solution; not shown: His tag

[3] = biological target: T3, biotinylated human EGFR extracellular domain (Acro EGF-H82E3) (human, UniProt P00533 25-645, biotinylated (site not stated)); assay: BLI avidity format, biotinylated EGFR ECD on SA sensors, antibody in solution, 1:1 fit
T3 construct: extracellular domain; Loaded onto streptavidin (SA) sensors; also called immobilized EGFR

[4] = biological target: T4, human His-tagged HER3 extracellular domain (in-house expressed) (human, UniProt P21860 20-643); assay: BLI sandwich assay, antibody held on immobilized biotinylated EGFR, 500 nM HER3 ECD in solution, 1:1 fit
T4 construct: extracellular domain; also called HER3 ECD (in-house expressed); not shown: His tag

[5] = biological target: T4, human His-tagged HER3 extracellular …; assay: BLI sandwich assay, antibody held on immobilized EGFR, HER3 ECD in solution
[6] = biological target: T2, His-tagged human HER3 extracellular …; assay: BLI (Octet), antibody captured on AHC sensors; tandem: 100 nM EGFR 720 s, then 100 nM EGFR + 400 nM HER3 720 s, then buffer; EGFR+HER3 step

Kd [1] [nM]	koff [1] [s⁻¹]	kon [1] [M⁻¹ s⁻¹]	Kd [2] [nM]	koff [2] [s⁻¹]	kon [2] [M⁻¹ s⁻¹]	Kd [3] [nM]	koff [3] [s⁻¹]	kon [3] [M⁻¹ s⁻¹]	Kd [4] [nM]	koff [4] [s⁻¹]	kon [4] [M⁻¹ s⁻¹]	binding result [5]	binding result [6]	Binder
15.8	0.00178	113000	–	–	–	–	–	–	–	–	–	–	–	SI-1C5 (nimotuzumab-based anti-EGFR monoclonal antibody) (antibody, V domains shown) VH: QVQLQQSGAEVKKPGSSVKVSCKASGYTFTNYYIYWVRQAPGQGLEWIGGINPTSGGSNFNEKFKTRVTITVDESTNTAYMELSSLRSEDTAFYFCARQGLWFDSDGRGFDFWGQGSTVTVSS VL: DIQMTQSPSSLSASVGDRVTITCRSSQNIVHSNGNTYLDWYQQTPGKAPKLLIYKVSNRFSGVPSRFSGSGSGTDFTFTISSLQPEDIATYYCFQYSHVPWTFGQGTKLQITR
4.61	0.00122	264000	117	0.0308	265000	< 0.001	< 1e-07	353000	922	0.07	75900	–	–	SI-71X14, bispecific tetravalent anti-EGFR x HER3 antibody (humanized cetuximab IgG with MM-111 anti-HER3 scFv at the C-terminus of each heavy chain) (bispecific antibody, VH position 85 (Kabat) is D instead of cetuximab's N) heavy: not shown light: EIVLTQSPSTLSVSPGERATFSCRASQSIGTNIHWYQQKPGKPPRLLIKYASESISGIPDRFSGSGSGTEFTLTISSVQSEDFAVYYCQQNNNWPTTFGPGTKLTVLRTVAAPSVFIFPPSDEQLKSGTASVVCLLNNFYPREAKVQWKVDNALQSGNSQESVTEQDSKDSTYSLSSTLTLSKADYEKHKVYACEVTHQGLSSPVTKSFNRGEC
4.76	0.0013	272000	–	–	–	< 0.001	< 1e-07	466000	–	–	–	no binding (tested: 500 nM)	no binding (tested: 400 nM)	SI-71M1, humanized cetuximab monoclonal antibody (antibody, human IgG1, kappa, V domains shown, also called Hu-Cetuximab; humanized cetuximab mAb) VH: QVQLQQSGPGLVKPSETLSITCTVSGFSLTNYGVHWIRQAPGKGLEWLGVIWSGGNTDYNTPFTSRFTITKDNSKNQVYFKLRSVRADDTAIYYCARALTYYDYEFAYWGQGTLVTVSS VL: EIVLTQSPSTLSVSPGERATFSCRASQSIGTNIHWYQQKPGKPPRLLIKYASESISGIPDRFSGSGSGTEFTLTISSVQSEDFAVYYCQQNNNWPTTFGPGTKLTVLR
